In patent publication US20210162028A1, “Methods for Inducing Intermittent Fasting and Modulating Autophagy” (The Hong Kong Polytechnic University, priority 2019, published 2021):
Entries after “also recorded” stand apart in the source; their conditions may differ.

Columns and labels:
Format in all cases: in vivo, mouse
[1] = Glucose tolerance test (GTT)
[2] = Bodyweight of treated mice
[3] = Inverted grid hanging test
[4] = Blood pressure and heart rate by tail-cuff method; conditions: DIO C57BL/6J male mice on HFD; about 600 U once a week; measured at 12 and 27 weeks
Text: FIG. 9 illustrates that administration of N-ABD094-rhArg (SEQ ID NO: 50) to DIO male mice fed a HFD [HFD (rhArg) group] in FIG. 1 for 34 weeks could reduce heart mass, and lower blood pressure and heart rate to levels similar to that of the lean control mice [CD (vehicle) group]. (A) Heart mass. (B-E) Systolic and diastolic blood pressure (B, D) and heart rate (C, E) measured respectively at 12 weeks (B, C) and 27 weeks (D, E) after rhArg treatment by tail-cuff method using Noninvasive Blood Pressure Monitoring System (CODA Scientific). *P<0.05, one-way ANOVA followed by Bonferroni test. Data are expressed as mean±SEM.
Other than liver, obesity is also commonly associated with lipid accumulation in the kidney (renal steatosis) and heart (cardiac steatosis), causing lipotoxicity and dysfunction of these organs. Indeed, there was an increase in kidney and heart mass in DIO mice treated with vehicle (FIG. 8A and FIG. 9A).

[5] = Survival of very old mice; conditions: 25-month old C57BL/6J male mice on chow diet; weekly for 30 weeks; vehicle 20%
Text: Specific autophagy upregulation in Caenorhabditis elegans and Drosophila extends lifespan, and drugs that induce autophagy, such as rapamycin, promote longevity in rodents (Hansen et al., Nature Reviews Molecular Cell Biology. 2018; 19:579-593). For C57BL/6J mice, over 24 months of age can be considered “very old” and survivorship drops off markedly (https://www.jax.org/news-and-insights/jax-blog/2017/november/when-are-mice-considered-old). To determine whether N-ABD094-rhArg (SEQ ID NO: 50), which induces systemic upregulation of autophagy, can increase longevity, very old C57BL/6J male mice at 25 months of age (equivalent to seventy in humans) fed an ordinary chow diet were separated into 2 groups. One group was treated once weekly with 600 U N-ABD094-rhArg (SEQ ID NO: 50) [CD Very Old (rhArg) group] for 30 weeks while another group was treated with vehicle [CD Very Old (vehicle) group]. A group of C57BL/6J male mice at 7 months of age (equivalent to early thirties in humans) treated with vehicle [CD Young (vehicle) group] served as the reference of progressive changes from mature adult to late middle age over the 30-week period.

[6] = Whitening of brown adipose tissue (size, mass, H&E histology); conditions: DIO C57BL/6J male mice on HFD; 600 U once a week, 12 weeks
Text: FIG. 53 illustrates that administration of 600 U N-ABD094-rhArg (SEQ ID NO: 50) once a week to C57BL/6J male mice with pre-existing HFD-induced obesity [HFD (rhArg) group] for 12 weeks could effectively reverse whitening of brown adipose tissue (BAT), with lipids stored as a large single globule (characteristic feature of white adipocytes) changing to storage of lipids in multiple small droplets (characteristic feature of brown adipocytes), which was in line with the findings of induction of lipophagy observed by TEM. […] (B) The mass of iBAT of the 3 groups of mice was in line with the size shown in A. *P<0.05, one-way ANOVA followed by Bonferroni test. Data are expressed as mean±SEM, n=5 for each group.
After prolonged feeding on a HFD, there was a further increase in the size (FIG. 53A) and weight of the interscapular BAT (FIG. 53B) in vehicle-treated DIO mice [HFD (vehicle) group] in comparison to the lean control mice [CD (vehicle) group], which was correlated with the presence of massive amount of enlarged white-like unilobular cells (FIG. 53A). As observed under transmission electron microscopy, brown adipocyte in mice fed with HFD [HFD (vehicle) group] had massive enlarged lipid droplets (FIG. 52A). […] Many autophagosomes were actively forming and engulfing the lipid droplets (FIG. 52B). […]

B1: N-ABD094-rhArg: recombinant human arginase fused to albumin binding domain ABD094 (SEQ ID NO: 50); engineered long-acting arginine-depleting enzyme (protein)
chain: MHHHHHHDEAVDANSLAEAKEAANAELDSYGVSDFYKRLIDKAKTVEGVEALKDAILAALPSGSNNNNNNGSGGMSAKSRTIGIIGAPFSKGQPRGGVEEGPTVLRKAGLLEKLKEQECDVKDYGDLPFADIPNDSPFQIVKNPRSVGKASEQLAGKVAEVKKNGRISLVLGGDHSLAIGSISGHARVHPDLGVIWVDAHTDINTPLTTTSGNLHGQPVSFLLKELKGKIPDVPGFSWVTPCISAKDIVYIGLRDVDPGEHYILKTLGIKYFSMTEVDRLGIGKVMEETLSYLLGRKKRPIHLSFDVDGLDPSFTPATGTPVVGGLTYREGLYITEEIYKTGLLSGLDIMEVNPSLGKTPEEVTRTVNTAVAITLACFGLAREGNHKPIDYLNPPK
modifications: N-ABD094-rhArg, Synthesized in the Lab
notes: engineered long-acting arginine-depleting enzyme
Glucose tolerance in GTT ([1]; 16-month old DIO C57BL/6J male mice on HFD, once a week, at 12 weeks): effectively reverse impaired glucose tolerance
Glucose tolerance in GTT ([1]; 17-month old C57BL/6J male mice on chow diet, once a week, at 15 weeks): to a level better than mice in CD Young (vehicle) group; also recorded: effectively improve glucose tolerance
Glucose tolerance in GTT ([1]; DIO C57BL/6J male mice on HFD, 300 U/week rhArg and/or 300 mg/kg metformin, after 7 weeks): significant improvement on glucose tolerance
Glucose tolerance in GTT ([1]; DIO C57BL/6J male mice on HFD, 600 U once a week, after 3 weeks (reduced daily food intake experiment)): improved glucose tolerance
Glucose tolerance in GTT ([1]; DIO C57BL/6J male mice on HFD, 600 U once a week, at 3 weeks (artificial IF experiment)): significant improvement in glucose tolerance by 3 weeks of treatment
Glucose tolerance in GTT ([1]; DIO C57BL/6J male mice on HFD, about 600 U once a week, at 15 and 31 weeks): significant improvement in glucose tolerance to a level comparable with the lean control mice; also recorded: effectively reverse impaired glucose tolerance
Glucose tolerance in GTT ([1]; DIO C57BL/6J male mice on HFD, rhArg weekly and/or 0.33 mg/day RA, after 7 weeks): cannot relieve glucose intolerance
Glucose tolerance in GTT ([1]; DIO ICR female mice on HFD, once a week, at 16 and 30 weeks): Improved glucose tolerance
Drop of bodyweight ([2]; 16-month old DIO C57BL/6J male mice on HFD, about 68 g prior to treatment, once a week, 25 weeks): 50%
Bodyweight maintained for the rest of the treatment period ([2]; 16-month old DIO C57BL/6J male mice on HFD, about 600 U once a week, 25 weeks): around 30 g
Bodyweight reached and maintained under treatment ([2]; 17-month old C57BL/6J male mice on chow diet, about 600 U once a week, 21 weeks, from 40 g): 30 g
Bodyweight reached and maintained under treatment ([2]; 25-month old C57BL/6J male mice on chow diet, about 600 U once a week, from 45 g within 3 weeks): 30 g
Change in bodyweight under single treatment ([2]; DIO C57BL/6J male mice on HFD, 300 U rhArg once a week alone or 300 mg/kg metformin daily alone): stable body weight without further increase in body mass
Change in bodyweight under single treatment ([2]; DIO C57BL/6J male mice on HFD, 300 U rhArg once a week alone or 300 mg/kg metformin daily alone, listed as rhArg): could only prevent further gain in bodyweight, but did not result in weight loss
Change in bodyweight ([2]; DIO C57BL/6J male mice on HFD, 600 U i.p. once a week, 5 weeks (artificial IF experiment)): substantial weight loss
Decrease of bodyweight by the end of treatment ([2]; DIO C57BL/6J male mice on HFD, 600 U i.p. once a week, 5 weeks (reduced daily food intake experiment)): 44%
Reduction of bodyweight ([2]; DIO C57BL/6J male mice on HFD, about 600 U i.p. once a week, within 6-7 weeks): 40%
Bodyweight reached and maintained under treatment ([2]; DIO C57BL/6J male mice on HFD, about 600 U once a week, 49 weeks, from 50 g within 6-7 weeks): around 30 g
Bodyweight reached and maintained under treatment ([2]; DIO C57BL/6J male mice on HFD, about 600 U once a week, 49 weeks, from 50 g within 6-7 weeks, listed as rhArg): 30 g
Change in bodyweight under single treatment ([2]; DIO C57BL/6J male mice on HFD, rhArg once a week alone or 0.33 mg RA daily alone): stable body weight without further increase
Change in bodyweight under single treatment ([2]; DIO C57BL/6J male mice on HFD, rhArg once a week alone or 0.33 mg RA daily alone, listed as rhArg): could only prevent further gain in bodyweight, but did not result in weight loss
Decrease of bodyweight ([2]; DIO ICR female mice on HFD, 1200 U i.p. once a week, within 9-10 weeks): 30%
Bodyweight maintained for the rest of the treatment period ([2]; DIO ICR female mice on HFD, about 1200 U once a week, 56 weeks): around 35 g
Inverted grid hanging test: endurance (latency to fall) ([3]; DIO C57BL/6J male mice on HFD, weekly for 42 weeks): endurance even higher than mice in CD (vehicle) group
Inverted grid hanging test: performance ([3]; DIO ICR female mice on HFD, weekly, at 54 weeks): significantly better than mice in HFD (vehicle) group
Blood pressure and heart rate [4]: levels similar to the age-matched lean control mice
Survival rate [5]: 80%
White-like unilobular cells in BAT (histology) [6]: almost complete remission of white-like unilobular cells
